We go through five molecules from paper PMC12308385, “Structural and Functional Characteristics of Potent Dioxygenase from Moesziomyces aphidis” (JACS Au, 2025).

In data set [1] the target is T1, MapADO (Moesziomyces aphidis, UniProt W3VHW6).
T1 construct: gene PaG_05861
T1 sequence (W3VHW6 2-548): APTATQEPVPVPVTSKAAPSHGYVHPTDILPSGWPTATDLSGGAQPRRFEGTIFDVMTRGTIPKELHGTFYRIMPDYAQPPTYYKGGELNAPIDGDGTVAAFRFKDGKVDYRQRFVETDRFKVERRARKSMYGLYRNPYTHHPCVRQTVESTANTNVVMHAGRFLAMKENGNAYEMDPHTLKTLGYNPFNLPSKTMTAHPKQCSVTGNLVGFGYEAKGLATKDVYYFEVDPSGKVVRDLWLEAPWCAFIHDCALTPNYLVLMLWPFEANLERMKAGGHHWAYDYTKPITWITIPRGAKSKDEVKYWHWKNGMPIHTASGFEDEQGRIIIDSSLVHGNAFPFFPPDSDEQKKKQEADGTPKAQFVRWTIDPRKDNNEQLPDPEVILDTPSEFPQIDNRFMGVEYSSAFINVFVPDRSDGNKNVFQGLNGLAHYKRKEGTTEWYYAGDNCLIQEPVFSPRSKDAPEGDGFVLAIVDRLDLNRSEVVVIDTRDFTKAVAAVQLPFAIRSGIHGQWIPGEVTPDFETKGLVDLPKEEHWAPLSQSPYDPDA
Nature of the data set: X-ray crystal structure (cocrystallization). It is filed as binding. Conditions: 40-fold molar excess ligand; front pocket at Fe2+.

Data set [2] concerns the target T1, MapADO. As to the kind of experiment: inhibition of isoeugenol conversion. It is filed as cell-based. Conditions: equimolar to isoeugenol; enzyme preparation not stated in main text; suggested competitive.
Data set [3] addresses T1, MapADO. As to the kind of experiment: inhibition of isoeugenol conversion. It counts as cell-based. The note with it: equimolar to isoeugenol; enzyme preparation not stated in main text.
Substrate in data set [4]: CC=Cc1ccc(O)c(OC)c1
Nature of the data set: spectrophotometric monitoring of vanillin formation. It counts as biochemical, Thermothelomyces thermophilus. Conditions: co-substrate O2; Fe2+ enzyme. An excerpt:
spectrophotometric monitoring of vanillin formation on ADO (TtCCO)

Substrate in data set [5]: CC=Cc1ccc(O)c(OC)c1
The description is as above. It is filed as biochemical, Moesziomyces aphidis. Conditions: co-substrate O2; Fe2+ enzyme. An excerpt:
spectrophotometric monitoring of vanillin formation on MapADO

Consider `O=Cc1ccc(O)cc1` [compound 3, 4-hydroxybenzaldehyde], for which, in data set [1], the “X-ray crystal structure (cocrystallization)” value is “The 3-bound structure (PDB ID: 9G8A) shows similar hydrophobic interactions and hydrogen bonds”.
The term % inhibition denotes the drop in the measured response relative to a control, in per cent. A low value points to a weak effect. On to `COc1cccc(C=O)c1O` [compound 5, ortho-vanillin], for which the “% inhibition” value in data set [2] turned out to be 25%.
As for `COc1cc(C=O)ccc1O` [compound 1, vanillin], the “% reduction of 1a conversion” value in data set [3] is on record as 60%. Besides, the “X-ray crystal structure (cocrystallization)” value in data set [1] is listed as “In the 1-bound structure (PDB ID: 9G89), interactions include hydrophobic contacts”.

B1: ADO (TtCCO) (Thermothelomyces thermophilus ATCC 42464) (protein)
chain: MAHIHDLAPEVSNYSSGRLTPPTPVRFPRTPVFASMNKPCRFEGDVFDLEVSGAIPPDIDGTFFRVQPDHRFPPLFEDDIHFNGDGSVTAIRISGGHADLRQRYVRTERYLLETRARRSLFGRYRNPWTDNESVRGVIRTASNTNVVFWRGALLAMKEDGPPFAMDPVTLETLGRYDFEGQILSPTFTAHPKIDPDTGEMVCFAYEAGGDGSDCSVDVAVWTVDADGKKVEECWYKAPFAGMIHDCGITKNWVVLPLTPIKMDLERMKRGGNKFAWDPSEDQWYGVVPRRGAKSDDIIWFRADNGFHGHVAGCYELPSGEIVFDLTVADGNVFFFFPPDDNITPPADGVAKRNRLSSPTVRWIFDPKAKKSAIRTEAAGDADIWVADERVKPALTWPTNGEFSRIDDRYVTKPYRHFWQAVVDPTRPYDFEKCGPPAGGLFNCLGHYTWSDQNYHHGHNTGDPSGDGRSNGSAEEATAGKFGLQDVYFAGPTMTFQEPTFIPRQGAAEGEGYLIALLNHLDELRNDVVIFEARNLGKGPLAVIHLPLKLKLGLHGNWVDSREIEAWRRRRAENGDVGPLRVAKEPLPWQKKFAAAAQNGSNGV
notes: purified recombinant; construct details not given; genus given only as T
Broadly, the Km is the substrate concentration at which the rate is half of its maximum. One may read the Vmax as the top rate of the reaction or transport when substrate is in excess. By kcat is commonly meant the number of substrate molecules converted per active site and unit of time at saturation. On to B1, for which, in data set [4], the Km was 2240 ± 264 µM, the Vmax was determined as 43 µmol/min/mg and the kcat stood at 44 s⁻¹.

B2: MapADO (Moesziomyces aphidis) (protein)
chain: T1 sequence (W3VHW6 2-548)
With B2, in data set [5], the Km stood at 118 ± 13 µM, the maximum rate (Vmax) was 231 µmol/min/mg and the kcat came to 238 s⁻¹.
